According to publication PMC6294498, “The structural basis of CstF-77 modulation of cleavage and polyadenylation through stimulation of CstF-64 activity”:

How the values were obtained:
CstF-64 RRM = molecular target: T1, CstF-64 RRM (Homo sapiens, UniProt P33240 1-107); test: NMR (1H-15N HSQC titration); 10 mM phosphate pH 6.0, 2 mM TCEP, 30 C; 15N-labeled protein titrated with unlabeled RNA; conditions: protein: recombinant; tags: His6-TEV, removed by TEV; label: none; single strand
T1 sequence: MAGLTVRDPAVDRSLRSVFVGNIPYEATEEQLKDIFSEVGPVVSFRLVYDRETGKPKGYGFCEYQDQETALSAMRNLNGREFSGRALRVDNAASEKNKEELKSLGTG

[1] = molecular target: T2, CstF-64 RRM-Hinge;CstF-77 MT (MT-CTD lacking last 30 aa) (Homo sapiens;Homo sapiens, UniProt P33240;Q12996 1-195;607-687, |del688-717); test: as above; conditions: protein: recombinant;recombinant, tags: His6-TEV, removed by TEV;MBP-TEV, copies: 1;1, label: none, single strand
T2 sequence 1: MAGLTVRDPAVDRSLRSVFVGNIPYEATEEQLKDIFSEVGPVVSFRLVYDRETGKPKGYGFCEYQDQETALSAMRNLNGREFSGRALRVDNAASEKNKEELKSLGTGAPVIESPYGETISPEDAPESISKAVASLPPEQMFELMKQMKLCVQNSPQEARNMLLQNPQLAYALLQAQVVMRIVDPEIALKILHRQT
T2 sequence 2: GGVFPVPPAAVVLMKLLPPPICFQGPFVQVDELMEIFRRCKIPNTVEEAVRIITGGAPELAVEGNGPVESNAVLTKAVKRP

[2] = molecular target: T3, CstF-64 RRM-Hinge;CstF-77 MT-CTD (Homo sapiens;Homo sapiens, UniProt P33240;Q12996 1-195;607-717, |); test: NMR (1H-15N HSQC titration); smaller CSPs; last 30 aa of CstF-77 show no significant CSP; 10 mM phosphate pH 6.0, 2 mM TCEP, 30 C; 15N-labeled protein titrated with unlabeled RNA; conditions: protein: recombinant;recombinant, tags: His6-TEV, removed by TEV;MBP-TEV, copies: 1;1, label: none, single strand
T3 sequence 1: T2 sequence 1
T3 sequence 2: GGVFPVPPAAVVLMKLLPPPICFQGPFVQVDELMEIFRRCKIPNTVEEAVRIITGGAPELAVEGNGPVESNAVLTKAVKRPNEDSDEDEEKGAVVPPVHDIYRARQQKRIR

AUUUUAUGUUUCAGGU (ssRNA) [SVL RNA]
Kd (CstF-64 RRM): 0.7 ± 0.4 µM
Kd [1]: 3.5 ± 1 µM
Kd [2]: 3.3 ± 2.3 µM
